In paper PMC12945441:

Target: prefusion SARS-CoV-2 Omicron BA.1 S ectodomain trimer (SARS-CoV-2 Omicron BA.1)
Assay: cryo-EM structure

“prefusion SARS-CoV-2 Omicron BA.1 S ectodomain trimer (domain or fragment)” gave a stoichiometry N of 3.
